Legend:
[1] = Rheometer stress sweep test of peptide compositions at selected concentrations (AR500, 40 mm plates); format: physicochemical; conditions: 37° C.; for Loss Modulus (G″) / Storage Modulus (G′): at 1 Pa of oscillation stress, 10 rad/s; for Max. Viscosity (max η′): maximum in range of measured stress; for Yield Stress: stress sweep 10 rad/s
Procedure: The present Example further describes measurement of various rheological properties of certain peptide compositions at selected concentrations using a rheometer (AR500, TA Instruments) with 40 mm plates. A peptide composition (700 μL) was placed on the rheometer plate and excess composition was gently removed by Kimwipes. Measurements were performed after 2 minutes of relaxation time at 37° C. Storage modulus, loss modulus, and viscosity (η′) were measured at 37° C. with the plates placed at a measuring geometry gap of 300 μm, and stress sweep tests were performed at 0.1 Pa˜1000 Pa of oscillation stress with angular frequency at 10 rad/s.
Results are shown in FIGS. 2-4 for RADA16 (SEQ ID NO:1), IEIK13 (SEQ ID NO:3), and KLD12 (SEQ ID NO:2).

[2] = tested on: C57 BL/6 Mouse Mesenchymal Stem Cells (mMSCs); test: Cell viability (cytotoxicity) assay; format: cell-based
Procedure: A cell viability (cytotoxicity) assay was performed to measure the viability of C57 BL/6 Mouse Mesenchymal Stem Cells (mMSCs) with IEIK13 (SEQ ID NO:3), KLD12 (SEQ ID NO:2) and RADA16 (SEQ ID NO:1) compositions as described herein. mMSCs are a frequently used cell line in hydrogel tissue culture systems. […] The final concentration of sucrose was 10%. Cells were washed and re-suspended in 10% sucrose to a final concentration of 5 million cells/ml. Cells were centrifuged and the supernatant was removed. The cells were re-suspended in peptide compositions with 10% sucrose. The protocol was then followed for plating drop cultures and subsequent isolation as described in the PuraMatrix® Guidelines for Use (BD/Corning website). Results are shown in FIGS. 14-16 for RADA16 (SEQ ID NO:1), IEIK13 (SEQ ID NO:3), and KLD12 (SEQ ID NO:2), respectively.

[3] = Compositions with 0.9% NaCl at pH 3.4 (combined salt and pH); format: physicochemical
Procedure: IEIK13 (SEQ ID NO:3), KLD12 (SEQ ID NO:2), and RADA16 (SEQ ID NO:1) were dissolved in salt buffer (e.g. NaCl) and kept at elevated pH level adjusted with alkali salt buffer (e.g. NaOH). The compositions had their pH levels about 2.5-4.0 and lower ionic strength than their critical points. With respect to RADA16 (SEQ ID NO:1), KLD12 (SEQ ID NO:2) and IEIK13 (SEQ ID NO:3), peptide compositions were still clear with 0.9% NaCl (i.e. ionic strength of 0.15 M) at pH 3.4 (adjusted with NaOH). Rheological properties of RADA16 (SEQ ID NO:1) with 0.9% NaCl at pH 3.4 were stiffer than those of RADA16 control (i.e. no ionic strength and pH elevation) and RADA16 (SEQ ID NO:1) with 0.9% NaCl (no pH elevation).

[4] = Time sweep test of gelation after adding DMEM or saline buffer; format: physicochemical
Procedure: FIG. 25 includes 1.5% IEIK13 (SEQ ID NO:3) data at pH 2.3, 2.6, 2.9 and 3.2. Time sweep tests were performed at 1 rad/sec and at 1 Pa with 20 mm plates and 500 μm gap distance. During time sweep tests, DMEM was added into the chamber surrounding the measuring plates to soak the peptides at time=0.
Time sweep tests were performed at 1 rad/sec and at 1 Pa with 20 mm plates and 500 μm gap distance. During time sweep tests, the saline buffer was added into the chamber surrounding the measuring plates to soak the peptides at time=0.

[5] = Rheological properties before and after DMEM treatment; format: physicochemical
Procedure: Effects of Dulbecco's modified Eagle's medium (DMEM) (pH 7.4) on rheological properties of IEIK13 (SEQ ID NO:3), KLD12 (SEQ ID NO:2), and RADA16 (SEQ ID NO:1) compositions were evaluated using a rheometer (AR500, TA Instruments) with 40 mm plates. DMEM is a cell culture medium that contains 6.4 g/L of NaCl, 3.4 g/L NaHCO3 (sodium bicarbonate), minor amounts of other salts, various amino acids, and 4.5 g/L of glucose. The pH of DMEM is 7.2±0.2 and the osmolality is 335±30 mOsm/Kg H2O. DMEM is close to human physiological fluids, for example, blood.
Before being mixed with the DMEM solution, 1% peptide compositions were kept in 4° C. for at least 48 hours. To perform experiments, 1 mL of peptide composition was gently pipetted and placed on the plate of the rheometer. 2 mL of the DMEM solution was gently added around the peptide composition. The peptide composition was treated with the DMEM for two minutes, then medium was removed, and the plates were placed at a measuring geometry gap at around 450 μm. Measurements were performed at 37° C. after 2 min of relaxation. Frequency tests were performed from 1 rad/s to 100 rad/s at 1 Pa of oscillation stress.
Using a DHR-1 rheometer (TA Instruments), rheological properties of peptide compositions at selected concentrations were measured before and after the DMEM treatment. Frequency sweep tests were performed from 1 rad/sec to 10 rad/sec at 1 Pa and the storage moduli in the graphs were at 1 rad/sec. […] Results are shown in FIGS. 22A and 22B for RADA16 (SEQ ID NO:1) and FIGS. 23A and 23B for IEIK13 (SEQ ID NO:3), respectively.
Using a DHR-1 rheometer (TA Instruments), rheological properties of peptide compositions at selected ion strengths were evaluated 10 mins after the DMEM treatment. Frequency sweep tests were performed from 1 rad/sec to 10 rad/sec at 1 Pa and the storage modulus at 1 rad/sec was selected for data. […] At 0.9 M or higher ionic strengths of NaCl, RADA16 (SEQ ID NO:1) compositions became cloudy.

[6] = pH of reference peptide compositions in water; format: physicochemical; conditions: reference composition in water
Source text: Table 2, below, presents pH concentrations observed for reference compositions in which the indicated peptide is solubilized in water at the indicated concentration.

Arg-Ala-Asp-Ala-Arg-Ala-Asp-Ala-Arg-Ala-Asp-Ala-Arg-Ala-Asp-Ala [RADA16]
Loss Modulus (G″) ([1]; Conc. 1%): 12 Pa
Storage Modulus (G′) ([1]; Conc. 1%): 74 Pa
Max. Viscosity (max η′) ([1]; Conc. 1%): 2.3 Pa · s
Yield Stress ([1]; Conc. 1%): 15.9 Pa
Loss Modulus (G″) ([1]; Conc. 1.5%): 30 Pa
Storage Modulus (G′) ([1]; Conc. 1.5%): 158 Pa
Max. Viscosity (max η′) ([1]; Conc. 1.5%): 3.4 Pa · s
Yield Stress ([1]; Conc. 1.5%): 20.0 Pa
Loss Modulus (G″) ([1]; Conc. 2%): 39 Pa
Storage Modulus (G′) ([1]; Conc. 2%): 217 Pa
Max. Viscosity (max η′) ([1]; Conc. 2%): 4.0 Pa · s
Yield Stress ([1]; Conc. 2%): 31.6 Pa
Loss Modulus (G″) ([1]; Conc. 2.5%): 53 Pa
Storage Modulus (G′) ([1]; Conc. 2.5%): 352 Pa
Max. Viscosity (max η′) ([1]; Conc. 2.5%): 5.6 Pa · s
Yield Stress ([1]; Conc. 2.5%): 50.1 Pa
Cell viability at 0.5% versus 0.25% [2]: significantly higher than that at 0.25%
Appearance of composition ([3]; 0.9% NaCl (ionic strength of 0.15 M) at pH 3.4 (adjusted with NaOH)): still clear
Stiffness versus control and versus 0.9% NaCl without pH elevation ([3]; 0.9% NaCl at pH 3.4, 2.5% (FIG. 40)): stiffer
Gelation on exposure to saline buffer ([4]; saline buffer, 0.15 M NaCl): no or negligible gelation
Storage modulus response (gelation kinetics) ([4]; with pH adjustment, time sweep with DMEM (FIGS. 24 and 25)): immediate storage modulus increase
Time without storage modulus increase ([4]; without pH adjustment (pH 2.2), time sweep with DMEM (FIG. 24)): 13 s
Appearance of composition ([5]; 0.9 M or higher ionic strengths of NaCl): became cloudy
Rheological properties as a function of ionic strength after DMEM treatment ([5]; 10 mins after DMEM treatment, NaCl, decreased with 0.7 M or higher): increased with ionic strength adjustment up to 0.7 M
Change of rheological properties with DMEM treatment ([5]; selected NaCl ionic strengths, RADA16 statement follows 0.9 M or higher NaCl (no gelation)): did not change with the DMEM treatment
Rheological properties with DMEM treatment and/or pH elevation ([5]; selected concentrations, storage moduli at 1 rad/sec, 1 Pa): increased with the DMEM treatment and/or pH elevation
pH ([6]; Concentration 0.5%): 2.7
pH ([6]; Concentration 1.0%): 2.5
pH ([6]; Concentration 1.5%): 2.5
pH ([6]; Concentration 2.0%): 2.5
pH ([6]; Concentration 2.5%): 2.5

— patent US10654893B2, “Self-assembling peptide compositions” (3-D MATRIX, LTD., priority 2014, dated 2020)
